The target of the assay is T1, His-AteIF4AIII (Arabidopsis thaliana, UniProt Q94A52 1-408).
T1 construct: AteIF4AIII, Arabidopsis thaliana; cDNA amplified from qrt cDNAs with primers AteIF4AIIIFNdeI and AteIF4AIIIRSalI; Vector pET16b; also called His-eIF4AIII; source: E. coli BL21 (DE3) (pET16b), purified and eluted with ProBond beads
The experiment in a line: pull-down; MBP, MBP-AtMago or MBP-AtMagoΔC kept on amylose beads; purified His-Y14 or His-eIF4AIII diluted in Column Buffer (200 mM NaCl, 1 mM EDTA, 20 mM Tris-HCl, pH 7.4), 300 μL, on ice 1 hour; three washes; Western blot with anti-His or anti-MBP. The settings on record: both partners purified.

T1 sequence (Q94A52 whole entry): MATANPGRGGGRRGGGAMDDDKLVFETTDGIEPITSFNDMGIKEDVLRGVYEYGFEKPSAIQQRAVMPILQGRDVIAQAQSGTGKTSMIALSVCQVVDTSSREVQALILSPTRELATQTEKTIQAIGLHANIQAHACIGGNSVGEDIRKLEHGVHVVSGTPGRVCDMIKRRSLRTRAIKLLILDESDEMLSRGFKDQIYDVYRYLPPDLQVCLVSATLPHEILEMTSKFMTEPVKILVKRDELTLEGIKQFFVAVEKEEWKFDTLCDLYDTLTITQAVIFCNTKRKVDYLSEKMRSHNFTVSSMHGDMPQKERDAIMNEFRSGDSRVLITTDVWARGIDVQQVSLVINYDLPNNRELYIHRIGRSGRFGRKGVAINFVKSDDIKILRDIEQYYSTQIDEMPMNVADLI

B1: MBP-AtMago (natural protein, Arabidopsis thaliana, UniProt O23676 1-150, looked up)
chain: MAAEEATEFYLRYYVGHKGKFGHEFLEFEFREDGKLRYANNSNYKNDTIIRKEVFLTPAVLKECKRIVSESEILKEDDNNWPEPDRVGKQELEIVLGNEHISFATSKIGSLVDCQSSNDPEGLRIFYYLVQDLKCLVFSLISLHFKIKPI
notes: AtMago (HAP1), Arabidopsis thaliana, full length protein of 150 amino acids; cDNA amplified from qrt;HAP1/hap1-2 cDNAs; Cloned BamHI/HindIII into pMAL-c2; also called HAP1; HAPLESS1
In the case of B1, the binding result was “binds”.

The record behind these values is article PMC4750992, “A New Mutation, hap1-2, Reveals a C Terminal Domain Function in AtMago Protein and Its Biological Effects in Male Gametophyte Development in Arabidopsis thaliana” (PLoS ONE, 2016).
